Source: US20020177126A1

Substrate: F protein of wild type RSV A/Long (respiratory syncytial virus, strain A/Long) (UniProt P12568)
Test: cell-based or functional assay

F protein of wild type RSV A/Long (respiratory syncytial virus, strain A/Long), sequence (P12568 26-574): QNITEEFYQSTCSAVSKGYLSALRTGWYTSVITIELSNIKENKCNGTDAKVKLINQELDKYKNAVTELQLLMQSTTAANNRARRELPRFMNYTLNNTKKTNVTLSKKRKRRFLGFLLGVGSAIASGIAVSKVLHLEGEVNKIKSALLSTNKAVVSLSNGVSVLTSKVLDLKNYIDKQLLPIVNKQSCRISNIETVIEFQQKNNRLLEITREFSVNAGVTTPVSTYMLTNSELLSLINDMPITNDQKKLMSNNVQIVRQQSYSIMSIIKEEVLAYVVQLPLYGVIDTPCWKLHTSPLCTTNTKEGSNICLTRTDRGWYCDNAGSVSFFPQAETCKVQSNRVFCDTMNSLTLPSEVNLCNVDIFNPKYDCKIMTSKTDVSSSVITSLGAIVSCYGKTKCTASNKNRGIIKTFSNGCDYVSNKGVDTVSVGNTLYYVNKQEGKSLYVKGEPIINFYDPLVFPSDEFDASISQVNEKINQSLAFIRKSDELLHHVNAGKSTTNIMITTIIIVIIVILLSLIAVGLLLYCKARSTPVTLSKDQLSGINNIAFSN

Binder | Fold Difference (Control IC50) | Fold Difference (Curve IC50) | Mean IC50 (Control), RSV microneutralization | Mean IC50 (Curve), RSV microneutralization
A17d4 (Fab) (Fab, V domains shown) VH: QVTLRESGPALVKPTQTLTLTCTFSGFSLSTAGMSVGWIRQPPGKALEWLADIWWDGKKSYNPSLKDRLTISKDTSKNQVVLKVTNMDPADTATYYCARDMIFNFYFDVWGQGTTVTVSS VL: DIQMTQSPSTLSASVGDRVTITCLPSSRVGYMHWYQQKPGKAPKLLIYDTMYQASGVPSRFSGSGSGTEFTLTISSLQPDDFATYYCFQFSGYPFTFGGGTKLEIK | 31 fold | 25 fold | 0.0171 µg/mL | 0.0179 µg/mL
A1h5 (Fab) (Fab, V domains shown) VH: QVTLRESGPALVKPTQTLTLTCTFSGFSLSTPGMSVGWIRQPPGKALEWLADIWWDGKKHYNPSLKDRLTISKDTSKNQVVLKVTNMDPADTATYYCARDMIFNWYFDVWGQGTTVTVSS VL: DIQMTQSPSTLSASVGDRVTITCSLSSSVGYMHWYQQKPGKAPKLLIYDTFFHRSGVPSRFSGSGSGTEFTLTISSLQPDDFATYYCFQGSGYPFTFGGGTKLEIK | 3 fold | 2 fold | 0.176 µg/mL | 0.194 µg/mL
A8c7 (Fab) (Fab, V domains shown) VH: QVTLRESGPALVKPTQTLTLTCTFSGFSLSTAGMSVGWIRQPPGKALEWLADIWWDDKKSYNPSLKDRLTISKDTSKNQVVLKVTNMDPADTATYYCARDMIFNWYFDVWGQGTTVTVSS VL: DIQMTQSPSTLSASVGDRVTITCSASSRVGYMHWYQQKPGKAPKLLIYDTRYQSSGVPSRFSGSGSGTEFTLTISSLQPDDFATYYCFQGSGYPFTFGGGTKLEIK | 34 fold | 3 fold | 0.157 µg/mL | 0.177 µg/mL
A4B4 (Fab) (Fab, V domains shown) VH: QVTLRESGPALVKPTQTLTLTCTFSGFSLSTAGMSVGWIRQPPGKALEWLADIWWDDKKHYNPSLKDRLTISKDTSKNQVVLKVTNMDPADTATYYCARDMIFNFYFDVWGQGTTVTVSS VL: DIQMTQSPSTLSASVGDRVTITCSASSRVGYMHWYQQKPGKAPKLLIYDTFFLDSGVPSRFSGSGSGTEFTLTISSLQPDDFATYYCFQGSGYPFTFGGGTKLEIK | 13 fold | 11 fold | 0.0411 µg/mL | 0.0414 µg/mL
